From patent EP4692126A1 (Sound Biopharmaceuticals Co. Ltd., dated 2026)

Target: T1, TPBG-His (UniProt Q13641 32-355, limits assumed)
T1 construct: probably the human protein, the same as m24; also called TPBG-His antigen; TPBG-His protein; not shown: His tag
T1 sequence (looked up): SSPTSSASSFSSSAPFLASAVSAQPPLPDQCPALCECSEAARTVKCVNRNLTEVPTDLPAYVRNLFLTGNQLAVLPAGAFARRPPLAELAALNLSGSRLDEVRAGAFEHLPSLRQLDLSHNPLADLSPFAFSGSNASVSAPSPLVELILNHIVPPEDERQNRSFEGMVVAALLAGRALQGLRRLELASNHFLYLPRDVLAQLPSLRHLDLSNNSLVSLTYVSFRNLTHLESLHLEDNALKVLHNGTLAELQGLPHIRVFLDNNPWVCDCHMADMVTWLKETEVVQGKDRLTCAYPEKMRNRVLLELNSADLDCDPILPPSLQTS
Assay: SPR (Biacore 8K), antibody captured on anti-human antibody CM5 chip, TPBG-His 300 nM, 1:1 model

B1: hB5-2-12 (antibody, human IgG1, kappa)
heavy: not shown
light: DIQMTQSPSSLSASVGDRVTISCRASQDISNYLNWYQQKPGKAPKLLIYHTSILHSGVPSRFSGSGSGTDYSLTISSLQPEDFATYFCQQGDTVPLTFGGGTKVEIKRTVAAPSVFIFPPSDEQLKSGTASVVCLLNNFYPREAKVQWKVDNALQSGNSQESVTEQDSKDSTYSLSSTLTLSKADYEKHKVYACEVTHQGLSSPVTKSFNRGEC
notes: Humanized IgG1 kappa
Work on B1 yielded a Kd of 0.785 nM, a koff of 0.000298 s⁻¹ and a kon of 380000 M⁻¹ s⁻¹.

B2: hB5-2-18 (antibody, human IgG1, kappa)
heavy: not shown
light: DIQMTQSPSSLSASVGDRVTISCRASQDISNYLNWYQQKPGKVPKLLIYHTSILHSGVPSRFSGSGSGTDYSLTISSLQPEDVATYFCQQGDTVPLTFGGGTKVEIKRTVAAPSVFIFPPSDEQLKSGTASVVCLLNNFYPREAKVQWKVDNALQSGNSQESVTEQDSKDSTYSLSSTLTLSKADYEKHKVYACEVTHQGLSSPVTKSFNRGEC
notes: Humanized IgG1 kappa
Work on B2 yielded a Kd of 2.07 nM, a koff of 0.00061 s⁻¹ and a kon of 294000 M⁻¹ s⁻¹.

B3: hB5-2-17 (antibody, human IgG1, kappa)
heavy: not shown
light: DIQMTQSPSSLSASVGDRVTISCRASQDISNYLNWYQQKPGKAPKLLIYHTSILHSGVPSRFSGSGSGTDYSLTISSLQPEDIATYFCQQGDTVPLTFGGGTKVEIKRTVAAPSVFIFPPSDEQLKSGTASVVCLLNNFYPREAKVQWKVDNALQSGNSQESVTEQDSKDSTYSLSSTLTLSKADYEKHKVYACEVTHQGLSSPVTKSFNRGEC
notes: Humanized IgG1 kappa
Work on B3 yielded a Kd of 0.902 nM, a koff of 0.000317 s⁻¹ and a kon of 351000 M⁻¹ s⁻¹.

B4: hB5-2-6 (antibody, human IgG1, kappa, V domains shown)
VH: EVQLVESGGGLVQPGGSLRLSCAASGFTFRNYAMSWVRQAPGKGLEWVAEISTGGSYTYYPDTVTGRFTISRDNSKNTLYLQMNSLRAEDTAVYYCAFYYYGSSYSMDYWGQGTLVTVSS
VL: DIQMTQSPSSLSASVGDRVTISCRASQDISNYLNWYQQKPGKVPKLLIYHTSILHSGVPSRFSGSGSGTDYSLTISSLQPEDVATYFCQQGDTVPLTFGGGTKVEIKR
notes: Humanized IgG1 kappa
For B4, the Kd was 1.53 nM, the koff was 0.000497 s⁻¹ and the kon was 326000 M⁻¹ s⁻¹.

B5: hB5-2-4 (antibody, human IgG1, kappa, V domains shown)
VH: EVQLVESGGGLVQPGGSLRLSCAASGFTFRNYAMSWVRQAPGKGLEWVAEISTGGSYTYYPDTVTGRFTISRDNAKNSLYLQMNSLRAEDTAVYYCAFYYYGSSYSMDYWGQGTLVTVSS
VL: DIQMTQSPSSLSASVGDRVTISCRASQDISNYLNWYQQKPGKAPKLLIYHTSILHSGVPSRFSGSGSGTDYSLTISSLQPEDFATYFCQQGDTVPLTFGGGTKVEIKR
notes: Humanized IgG1 kappa
B5 gave a Kd of 0.845 nM, a koff of 0.000298 s⁻¹ and a kon of 353000 M⁻¹ s⁻¹.

B6: hB5-2-3 (antibody, human IgG1, kappa, V domains shown)
VH: EVQLVESGGGLVQPGGSLRLSCAASGFTFRNYAMSWVRQAPGKGLEWVAEISTGGSYTYYPDTVTGRFTISRDNAKNSLYLQMNSLRAEDTAVYYCAFYYYGSSYSMDYWGQGTLVTVSS
VL: DIQMTQTTSSLSASVGDRVTISCRASQDISNYLNWFQQKPGKAPKSLIYHTSILHSGVPSKFSGSGSGTDYSLTISSLQPEDFATYFCQQGDTVPLTFGGGTKVEIKR
notes: Humanized IgG1 kappa
Binder B6 has a Kd of 1.87 nM, a koff of 0.000681 s⁻¹ and a kon of 364000 M⁻¹ s⁻¹.

B7: hB5-2-1 (antibody, human IgG1, kappa, V domains shown)
VH: EVQLVESGGGLVQPGGSLRLSCAASGFTFRNYAMSWVRQAPGKGLEWVAEISTGGSYTYYPDTVTGRFTISRDNAKNSLYLQMNSLRAEDTAVYYCAFYYYGSSYSMDYWGQGTLVTVSS
VL: DIQMTQSPSSLSASVGDRVTISCRASQDISNYLNWYQQKPGKAPKLLIYHTSILHSGVPSRFSGSGSGTDYSLTISSLQPEDIATYFCQQGDTVPLTFGGGTKVEIKR
notes: Humanized IgG1 kappa
B7 gave a Kd of 1.11 nM, a koff of 0.000388 s⁻¹ and a kon of 351000 M⁻¹ s⁻¹.

B8: hB5-2-8 (antibody, human IgG1, kappa, V domains shown)
VH: EVQLVESGGGLVQPGGSLRLSCAASGFTFRNYAMSWVRQAPGKGLEWVAEISTGGSYTYYPDTVTGRFTISRDNSKNTLYLQMNSLRAEDTAVYYCAFYYYGSSYSMDYWGQGTLVTVSS
VL: DIQMTQSPSSLSASVGDRVTISCRASQDISNYLNWYQQKPGKAPKLLIYHTSILHSGVPSRFSGSGSGTDYSLTISSLQPEDFATYFCQQGDTVPLTFGGGTKVEIKR
notes: Humanized IgG1 kappa
Binder B8 has a Kd of 0.95 nM, a koff of 0.000302 s⁻¹ and a kon of 318000 M⁻¹ s⁻¹.

B9: hB5-2-15 (antibody, human IgG1, kappa, V domains shown)
VH: EVQLVESGGGVVQPGRSLRLSCAASGFTFRNYAMSWVRQAPGKGLEWVAEISTGGSYTYYPDTVTGRFTISRDNSKNTLYLQMSSLRAEDTAVYYCAFYYYGSSYSMDYWGQGTLVTVSS
VL: DIQMTQTTSSLSASVGDRVTISCRASQDISNYLNWFQQKPGKAPKSLIYHTSILHSGVPSKFSGSGSGTDYSLTISSLQPEDFATYFCQQGDTVPLTFGGGTKVEIKR
notes: Humanized IgG1 kappa
B9 showed a Kd of 1.95 nM, a koff of 0.000632 s⁻¹ and a kon of 324000 M⁻¹ s⁻¹.

B10: hB5-2-13 (antibody, human IgG1, kappa, V domains shown)
VH: EVQLVESGGGVVQPGRSLRLSCAASGFTFRNYAMSWVRQAPGKGLEWVAEISTGGSYTYYPDTVTGRFTISRDNSKNTLYLQMSSLRAEDTAVYYCAFYYYGSSYSMDYWGQGTLVTVSS
VL: DIQMTQSPSSLSASVGDRVTISCRASQDISNYLNWYQQKPGKAPKLLIYHTSILHSGVPSRFSGSGSGTDYSLTISSLQPEDIATYFCQQGDTVPLTFGGGTKVEIKR
notes: Humanized IgG1 kappa
B10 gave a Kd of 0.721 nM, a koff of 0.000313 s⁻¹ and a kon of 434000 M⁻¹ s⁻¹.

B11: hB5-2-16 (antibody, human IgG1, kappa, V domains shown)
VH: EVQLVESGGGVVQPGRSLRLSCAASGFTFRNYAMSWVRQAPGKGLEWVAEISTGGSYTYYPDTVTGRFTISRDNSKNTLYLQMSSLRAEDTAVYYCAFYYYGSSYSMDYWGQGTLVTVSS
VL: DIQMTQSPSSLSASVGDRVTISCRASQDISNYLNWYQQKPGKAPKLLIYHTSILHSGVPSRFSGSGSGTDYSLTISSLQPEDFATYFCQQGDTVPLTFGGGTKVEIKR
notes: Humanized IgG1 kappa
Work on B11 yielded a Kd of 0.634 nM, a koff of 0.000347 s⁻¹ and a kon of 547000 M⁻¹ s⁻¹.

B12: hB5-2-19 (antibody, human IgG1, kappa)
heavy: not shown
light: DIQMTQTTSSLSASVGDRVTISCRASQDISNYLNWFQQKPGKAPKSLIYHTSILHSGVPSKFSGSGSGTDYSLTISSLQPEDFATYFCQQGDTVPLTFGGGTKVEIKRTVAAPSVFIFPPSDEQLKSGTASVVCLLNNFYPREAKVQWKVDNALQSGNSQESVTEQDSKDSTYSLSSTLTLSKADYEKHKVYACEVTHQGLSSPVTKSFNRGEC
notes: Humanized IgG1 kappa
B12 showed a Kd of 0.88 nM, a koff of 0.000348 s⁻¹ and a kon of 396000 M⁻¹ s⁻¹.

B13: hB5-2-5 (antibody, human IgG1, kappa, V domains shown)
VH: EVQLVESGGGLVQPGGSLRLSCAASGFTFRNYAMSWVRQAPGKGLEWVAEISTGGSYTYYPDTVTGRFTISRDNSKNTLYLQMNSLRAEDTAVYYCAFYYYGSSYSMDYWGQGTLVTVSS
VL: DIQMTQSPSSLSASVGDRVTISCRASQDISNYLNWYQQKPGKAPKLLIYHTSILHSGVPSRFSGSGSGTDYSLTISSLQPEDIATYFCQQGDTVPLTFGGGTKVEIKR
notes: Humanized IgG1 kappa
In the case of B13, the Kd is reported as 0.827 nM, the koff is reported as 0.000279 s⁻¹ and the kon is reported as 337000 M⁻¹ s⁻¹.

B14: hB5-2-2 (antibody, human IgG1, kappa, V domains shown)
VH: EVQLVESGGGLVQPGGSLRLSCAASGFTFRNYAMSWVRQAPGKGLEWVAEISTGGSYTYYPDTVTGRFTISRDNAKNSLYLQMNSLRAEDTAVYYCAFYYYGSSYSMDYWGQGTLVTVSS
VL: DIQMTQSPSSLSASVGDRVTISCRASQDISNYLNWYQQKPGKVPKLLIYHTSILHSGVPSRFSGSGSGTDYSLTISSLQPEDVATYFCQQGDTVPLTFGGGTKVEIKR
notes: Humanized IgG1 kappa
B14 gave a Kd of 2.36 nM, a koff of 0.000527 s⁻¹ and a kon of 223000 M⁻¹ s⁻¹.

B15: hB5-2-14 (antibody, human IgG1, kappa, V domains shown)
VH: EVQLVESGGGVVQPGRSLRLSCAASGFTFRNYAMSWVRQAPGKGLEWVAEISTGGSYTYYPDTVTGRFTISRDNSKNTLYLQMSSLRAEDTAVYYCAFYYYGSSYSMDYWGQGTLVTVSS
VL: DIQMTQSPSSLSASVGDRVTISCRASQDISNYLNWYQQKPGKVPKLLIYHTSILHSGVPSRFSGSGSGTDYSLTISSLQPEDVATYFCQQGDTVPLTFGGGTKVEIKR
notes: Humanized IgG1 kappa
In the case of B15, the Kd is reported as 1.74 nM, the koff is reported as 0.000774 s⁻¹ and the kon is reported as 445000 M⁻¹ s⁻¹.

B16: hB5-2-20 (antibody, human IgG1, kappa)
heavy: not shown
light: DIQMTQSPSSLSASVGDRVTISCRASQDISNYLNWYQQKPGKAPKLLIYHTSILHSGVPSRFSGSGSGTDYSLTISSLQPEDFATYFCQQGDTVPLTFGGGTKVEIKRTVAAPSVFIFPPSDEQLKSGTASVVCLLNNFYPREAKVQWKVDNALQSGNSQESVTEQDSKDSTYSLSSTLTLSKADYEKHKVYACEVTHQGLSSPVTKSFNRGEC
notes: Humanized IgG1 kappa
In the case of B16, the Kd is reported as 0.95 nM, the koff is reported as 0.000302 s⁻¹ and the kon is reported as 318000 M⁻¹ s⁻¹.

B17: hB5-2-11 (antibody, human IgG1, kappa)
heavy: not shown
light: DIQMTQTTSSLSASVGDRVTISCRASQDISNYLNWFQQKPGKAPKSLIYHTSILHSGVPSKFSGSGSGTDYSLTISSLQPEDFATYFCQQGDTVPLTFGGGTKVEIKRTVAAPSVFIFPPSDEQLKSGTASVVCLLNNFYPREAKVQWKVDNALQSGNSQESVTEQDSKDSTYSLSSTLTLSKADYEKHKVYACEVTHQGLSSPVTKSFNRGEC
notes: Humanized IgG1 kappa
Work on B17 yielded a Kd of 1.39 nM, a koff of 0.000431 s⁻¹ and a kon of 310000 M⁻¹ s⁻¹.

B18: hB5-2-7 (antibody, human IgG1, kappa, V domains shown)
VH: EVQLVESGGGLVQPGGSLRLSCAASGFTFRNYAMSWVRQAPGKGLEWVAEISTGGSYTYYPDTVTGRFTISRDNSKNTLYLQMNSLRAEDTAVYYCAFYYYGSSYSMDYWGQGTLVTVSS
VL: DIQMTQTTSSLSASVGDRVTISCRASQDISNYLNWFQQKPGKAPKSLIYHTSILHSGVPSKFSGSGSGTDYSLTISSLQPEDFATYFCQQGDTVPLTFGGGTKVEIKR
notes: Humanized IgG1 kappa
B18 showed a Kd of 0.869 nM, a koff of 0.000342 s⁻¹ and a kon of 393000 M⁻¹ s⁻¹.

B19: hB5-2-9 (antibody, human IgG1, kappa)
heavy: not shown
light: DIQMTQSPSSLSASVGDRVTISCRASQDISNYLNWYQQKPGKAPKLLIYHTSILHSGVPSRFSGSGSGTDYSLTISSLQPEDIATYFCQQGDTVPLTFGGGTKVEIKRTVAAPSVFIFPPSDEQLKSGTASVVCLLNNFYPREAKVQWKVDNALQSGNSQESVTEQDSKDSTYSLSSTLTLSKADYEKHKVYACEVTHQGLSSPVTKSFNRGEC
notes: Humanized IgG1 kappa
B19 was tested, and the Kd was 0.927 nM, the koff was 0.000278 s⁻¹ and the kon was 299000 M⁻¹ s⁻¹.
